In test [1] the target is Schizosaccharomyces pombe ribosome (S. pombe). Kind of test: co-sedimentation; ribosome 1 μM and NatA 1.2 μM layered on Buffer G with 30% sucrose, ultracentrifuged; pellet and supernatant on SDS-PAGE.
Test [2] shares this target. The test can be described thus: co-sedimentation; NatA constant at 0.5 μM, ribosome 0.1–11 μM, 30% sucrose cushion; anti-His western blot of Naa15, proportion in the pellet quantified; fit assumes 1:1. (Immunoblotting shows a protein as a band on a membrane.)

Values joined by “and” are separate entries in the source; they are usually repeats but may differ in a detail not shown here. Equal entries are not always repeated.

A word on the stoichiometry N: it is the number of molecules, sites or subunits per partner or assembly. As a reminder, the Kd is a measure of binding affinity in units of concentration. High values mean weaker binding, low ones tighter binding.

For the substance “NatA (wild type; Naa15-Naa10 complex of Schizosaccharomyces pombe)”, in test [1], the stoichiometry N was 1.13 and 1.28. Also, the Kd in test [2] stood at 1.1 µM.

For the substance “NatA K9E (Naa15 K27E, K28E, K31E, K605E, K606E, K609E, K610E, K612E, K613E with Naa10) (complex)”, the percent pulldown (highest reached at the ribosome concentrations used) in test [2] was less than 30%.

For the origin of these results see article PMC5634638.
